Laboratory results published in article PMC4842197, “Preclinical in vivo application of ^152Tb-DOTANOC: a radiolanthanide for PET imaging” (EJNMMI Research, 2016).
Bridge positions count the residues as written; N and C are the ends. Square brackets hold non-standard residues; d marks the D form. Peptide text beside a SMILES is read from it. * marks the point of attachment. DOTA = O=C(O)CN1CCN(CC(=O)O)CCN(CC(=O)*)CCN(CC(=O)O)CC1; 1Nal = N[C@@H](Cc1cccc2ccccc12)C(=O)O; Thr(ol) = C[C@@H](O)[C@H](N)CO

Columns and labels:
AR42J tumor-bearing mice = experiment: in vivo; settings: female, CD-1 Foxn-1/nu nude, mouse, iv, 5 nmol per mouse, 5 h
Procedure: (§1) AR42J tumor cells, a rat exocrine pancreatic tumor cell line which is known to express the somatostatin receptor, were obtained from the European Collection of Cell Cultures (ECACC). The cells were cultured in RPMI 1640 medium, supplemented with 10 % fetal calf serum, L-glutamine, and antibiotics under standard conditions in a humidified atmosphere with 5 % CO2 at 37 °C. Routine culture was performed by trypsinization of the cells twice a week. To inoculate the animals, the cells were detached using trypsin, centrifuged, and resuspended in PBS at a concentration of 5 × 10^6 cells/100 μL.
(§2) In vivo experiments were approved by the local veterinary department and conducted in accordance with the Swiss law of animal protection. Female nude mice (CD-1 Foxn-1/nu) were purchased from Charles River Laboratories (Sulzfeld, Germany). The animals were fed with a standard rodent chow ad libitum (Kliba Nafag, Kaiseraugst, Switzerland).
(§3) About 2 weeks prior to biodistribution and imaging studies, the mice were inoculated with AR42J tumor cells by subcutaneous injection of the cell suspension (5 × 10^6 cells/100 μL) on each shoulder.
(§4) Mice were euthanized at pre-determined time points between 30 min and 22 h after injection of the radioconjugate. […] Selected tissues and organs were collected, weighed, and counted for radioactivity using a γ-counter (Packard Canberra Cobra II, USA). The results were listed as a percentage of the injected activity per gram of tissue mass (% IA/g), using counts of a defined volume of the original injection solution measured at the same time.

in vivo = settings: female, CD-1 Foxn-1/nu nude, mouse, iv, total radioactivity, Biodistribution
Procedure: as §1, §2, §3, §4

[1] = 2.5 nmol per mouse (5 MBq), AR42J tumor
[2] = 2.5 nmol per mouse (5 MBq), Blood
[3] = 2.5 nmol per mouse (5 MBq), Bone
[4] = 2.5 nmol per mouse (5 MBq), Brain
[5] = 2.5 nmol per mouse (5 MBq), Heart
[6] = 2.5 nmol per mouse (5 MBq), Lung

For `C[C@@H](O)[C@@H]1NC(=O)[C@H](CCCCN)NC(=O)[C@@H](Cc2c[nH]c3ccccc23)NC(=O)[C@H](Cc2cccc3ccccc23)NC(=O)[C@@H](NC(=O)[C@@H](Cc2ccccc2)NC(=O)CN2CCN(CC(=O)O)CCN(CC(=O)O)CCN(CC(=O)O)CC2)CSSC[C@@H](C(=O)N[C@H](CO)[C@@H](C)O)NC1=O` [^177Lu-DOTANOC, metal not drawn] ({DOTA}-[dF]C[1Nal][dW]KTC[Thr(ol)]; disulfide 2-7), the “Biodistribution, AR42J Tumor” value (AR42J tumor-bearing mice) was ~ 4 % IA/g, the tissue uptake at 5 h (in vivo; 0.5 nmol peptide, Adrenals) was 0.7 ± 0.13 %ID/g and the tissue uptake at 5 h (in vivo; 0.5 nmol peptide, Kidneys) was 6.63 ± 0.1 %ID/g. For the same compound, the tissue uptake at 5 h (in vivo; 0.5 nmol peptide, Lung) was 1.18 ± 0.36 %ID/g, the tissue uptake at 5 h (in vivo; 0.5 nmol peptide, Spleen) was 0.24 ± 0.03 %ID/g and the tissue uptake at 5 h (in vivo; 0.5 nmol per mouse, AR42J Tumor) was 25.3 ± 4.14 %ID/g. The tissue uptake at 5 h (in vivo; 0.5 nmol, Blood) was 0.09 ± 0.01 %ID/g, the tissue uptake at 5 h (in vivo; 0.5 nmol, Bone) was 0.33 ± 0.08 %ID/g and the tissue uptake at 5 h (in vivo; 0.5 nmol, Brain) was 0.01 %ID/g. For the same compound, the tissue uptake at 5 h (in vivo; 0.5 nmol, Heart) was 0.08 ± 0.01 %ID/g, the tissue uptake at 5 h (in vivo; 0.5 nmol, Liver) was 0.34 ± 0.01 %ID/g and the tissue uptake at 5 h (in vivo; 0.5 nmol, Muscle) was 0.02 ± 0.01 %ID/g. It also gave a tissue uptake at 5 h (in vivo; 0.5 nmol, Stomach) of 3.78 ± 0.28 %ID/g, a tissue uptake at 0.5 h (in vivo; [1]) of 9.02 ± 0.33 %ID/g and a tissue uptake at 2 h (in vivo; [1]) of 8.32 ± 0.47 %ID/g. The tissue uptake at 5 h (in vivo; [1]) was 8.45 ± 1.04 %ID/g, the tissue uptake at 16 h (in vivo; [1]) was 5.48 ± 0.98 %ID/g and the tissue uptake at 22 h (in vivo; [1]) was 4.51 ± 0.37 %ID/g. It also gave a tissue uptake at 0.5 h (in vivo; [2]) of 2.52 ± 0.65 %ID/g, a tissue uptake at 2 h (in vivo; [2]) of 0.09 ± 0.01 %ID/g and a tissue uptake at 5 h (in vivo; [2]) of 0.06 ± 0.01 %ID/g. It also gave a tissue uptake at 16 h (in vivo; [2]) of 0.07 ± 0.01 %ID/g, a tissue uptake at 22 h (in vivo; [2]) of 0.03 %ID/g and a tissue uptake at 16 h (in vivo; [3]) of 0.12 ± 0.05 %ID/g. The tissue uptake at 22 h (in vivo; [3]) was 0.08 ± 0.01 %ID/g, the tissue uptake at 0.5 h (in vivo; [4]) was 0.06 ± 0.01 %ID/g and the tissue uptake at 2 h (in vivo; [4]) was 0.01 %ID/g. For the same compound, the tissue uptake at 5 h (in vivo; [4]) was 0.02 %ID/g, the tissue uptake at 16 h (in vivo; [4]) was 0.02 ± 0.01 %ID/g and the tissue uptake at 22 h (in vivo; [4]) was 0.01 %ID/g. It also gave a tissue uptake at 0.5 h (in vivo; [5]) of 1.34 ± 0.35 %ID/g, a tissue uptake at 2 h (in vivo; [5]) of 0.08 ± 0.01 %ID/g and a tissue uptake at 5 h (in vivo; [5]) of 0.07 ± 0.01 %ID/g. For the same compound, the tissue uptake at 16 h (in vivo; [5]) was 0.07 ± 0.01 %ID/g, the tissue uptake at 22 h (in vivo; [5]) was 0.03 %ID/g and the tissue uptake at 0.5 h (in vivo; [6]) was 3.04 ± 0.47 %ID/g. The tissue uptake at 2 h (in vivo; [6]) was 0.45 ± 0.03 %ID/g, the tissue uptake at 5 h (in vivo; [6]) was 0.41 ± 0.04 %ID/g and the tissue uptake at 0.5 h (in vivo; 2.5 nmol per mouse, Adrenals) was 1.38 ± 0.32 %ID/g. For the same compound, the tissue uptake at 2 h (in vivo; 2.5 nmol per mouse, Adrenals) was 0.28 ± 0.14 %ID/g, the tissue uptake at 16 h (in vivo; 2.5 nmol per mouse, Adrenals) was 0.51 ± 0.4 %ID/g and the tissue uptake at 22 h (in vivo; 2.5 nmol per mouse, Adrenals) was 0.42 ± 0.18 %ID/g. It also gave a tissue uptake at 0.5 h (in vivo; 2.5 nmol per mouse, Bone) of 1.13 ± 0.26 %ID/g, a tissue uptake at 2 h (in vivo; 2.5 nmol per mouse, Bone) of 0.17 ± 0.01 %ID/g and a tissue uptake at 5 h (in vivo; 2.5 nmol per mouse, Bone) of 0.12 ± 0.02 %ID/g. It also gave a tissue uptake at 0.5 h (in vivo; 2.5 nmol per mouse, Intestines) of 0.94 ± 0.12 %ID/g, a tissue uptake at 2 h (in vivo; 2.5 nmol per mouse, Intestines) of 0.25 ± 0.04 %ID/g and a tissue uptake at 5 h (in vivo; 2.5 nmol per mouse, Intestines) of 0.25 ± 0.03 %ID/g. It also gave a tissue uptake at 16 h (in vivo; 2.5 nmol per mouse, Intestines) of 0.16 ± 0.01 %ID/g, a tissue uptake at 0.5 h (in vivo; 2.5 nmol per mouse, Kidneys) of 13 ± 1.85 %ID/g and a tissue uptake at 2 h (in vivo; 2.5 nmol per mouse, Kidneys) of 7.67 ± 0.51 %ID/g. The tissue uptake at 5 h (in vivo; 2.5 nmol per mouse, Kidneys) was 9.1 ± 1.66 %ID/g, the tissue uptake at 16 h (in vivo; 2.5 nmol per mouse, Kidneys) was 6.13 ± 1.63 %ID/g and the tissue uptake at 22 h (in vivo; 2.5 nmol per mouse, Kidneys) was 4.8 ± 0.19 %ID/g. It also gave a tissue uptake at 0.5 h (in vivo; 2.5 nmol per mouse, Liver) of 1.43 ± 0.17 %ID/g, a tissue uptake at 2 h (in vivo; 2.5 nmol per mouse, Liver) of 0.52 ± 0.04 %ID/g and a tissue uptake at 5 h (in vivo; 2.5 nmol per mouse, Liver) of 0.53 ± 0.1 %ID/g. The tissue uptake at 16 h (in vivo; 2.5 nmol per mouse, Liver) was 0.27 ± 0.05 %ID/g, the tissue uptake at 22 h (in vivo; 2.5 nmol per mouse, Liver) was 0.2 ± 0.02 %ID/g and the tissue uptake at 16 h (in vivo; 2.5 nmol per mouse, Lung) was 0.27 ± 0.05 %ID/g. It also gave a tissue uptake at 0.5 h (in vivo; 2.5 nmol per mouse, Muscle) of 0.48 ± 0.16 %ID/g, a tissue uptake at 2 h (in vivo; 2.5 nmol per mouse, Muscle) of 0.02 %ID/g and a tissue uptake at 5 h (in vivo; 2.5 nmol per mouse, Muscle) of 0.02 ± 0.01 %ID/g. The tissue uptake at 16 h (in vivo; 2.5 nmol per mouse, Muscle) was 0.03 %ID/g, the tissue uptake at 22 h (in vivo; 2.5 nmol per mouse, Muscle) was 0.01 %ID/g and the tissue uptake at 0.5 h (in vivo; 2.5 nmol per mouse, Pancreas) was 1.99 ± 0.07 %ID/g. The tissue uptake at 2 h (in vivo; 2.5 nmol per mouse, Pancreas) was 1.09 ± 0.17 %ID/g, the tissue uptake at 5 h (in vivo; 2.5 nmol per mouse, Pancreas) was 0.88 ± 0.11 %ID/g and the tissue uptake at 16 h (in vivo; 2.5 nmol per mouse, Pancreas) was 0.34 ± 0.05 %ID/g. The tissue uptake at 22 h (in vivo; 2.5 nmol per mouse, Pancreas) was 0.25 ± 0.03 %ID/g, the tissue uptake at 0.5 h (in vivo; 2.5 nmol per mouse, Spleen) was 0.77 ± 0.03 %ID/g and the tissue uptake at 5 h (in vivo; 2.5 nmol per mouse, Spleen) was 0.18 ± 0.02 %ID/g. The tissue uptake at 22 h (in vivo; 2.5 nmol per mouse, Spleen) was 0.09 ± 0.01 %ID/g, the tissue uptake at 0.5 h (in vivo; 2.5 nmol per mouse, Stomach) was 1.95 ± 0.23 %ID/g and the tissue uptake at 2 h (in vivo; 2.5 nmol per mouse, Stomach) was 1.14 ± 0.04 %ID/g. The tissue uptake at 5 h (in vivo; 2.5 nmol per mouse, Stomach) was 1.21 ± 0.55 %ID/g, the tissue uptake at 16 h (in vivo; 2.5 nmol per mouse, Stomach) was 0.68 ± 0.09 %ID/g and the tissue uptake at 22 h (in vivo; 2.5 nmol per mouse, Stomach) was 0.6 ± 0.22 %ID/g. The tissue uptake at 5 h (in vivo; 5 nmol peptide, Adrenals) was 0.18 ± 0.05 %ID/g, the tissue uptake at 5 h (in vivo; 5 nmol peptide, Kidneys) was 7 ± 0.69 %ID/g and the tissue uptake at 5 h (in vivo; 5 nmol peptide, Lung) was 0.28 ± 0.01 %ID/g. For the same compound, the tissue uptake at 5 h (in vivo; 5 nmol peptide, Spleen) was 0.11 ± 0.02 %ID/g, the tissue uptake at 5 h (in vivo; 5 nmol per mouse, AR42J Tumor) was 3.82 ± 0.2 %ID/g and the tissue uptake at 5 h (in vivo; 5 nmol, Blood) was 0.06 ± 0.01 %ID/g. The tissue uptake at 5 h (in vivo; 5 nmol, Bone) was 0.09 ± 0.02 %ID/g, the tissue uptake at 5 h (in vivo; 5 nmol, Brain) was 0.01 %ID/g and the tissue uptake at 5 h (in vivo; 5 nmol, Heart) was 0.06 %ID/g. For the same compound, the tissue uptake at 5 h (in vivo; 5 nmol, Intestines) was 0.14 ± 0.01 %ID/g, the tissue uptake at 5 h (in vivo; 5 nmol, Liver) was 0.36 ± 0.04 %ID/g and the tissue uptake at 5 h (in vivo; 5 nmol, Muscle) was 0.02 %ID/g. The tissue uptake at 5 h (in vivo; 5 nmol, Pancreas) was 0.41 ± 0.01 %ID/g and the tissue uptake at 5 h (in vivo; 5 nmol, Stomach) was 0.41 ± 0.05 %ID/g.
